In the RNAGym collection of RNA variant scans (doi:10.7554/elife.90254) one finds self-cleavage data, which are given here for 167 variants.

B1: OR4K15 (parent)
chain: GUUAACGGUCAUAGGCCAUGGAAACUAGGAGCACCAUUUCGCUGCCAGUGAAGAAAUGAACAAAGAAAAUCUGGGCCAGGCAGGCAUCAAAAGAAAUAGUCUUGCGCUCAACCAGAAAGUCUGUAAUCAUUUUAAGGGUA

This series covers variants of B1. In words: self-cleavage, relative activity (ratio to wild type); higher = more cleavage; in vitro, sequencing; the parent is a self-cleaving ribozyme.
In the case of A18U A82U, the self-cleavage worked out at 0.16.

On to A18U A82G, for which the self-cleavage is 0.46.

Turning to G20U A78G, the self-cleavage stood at 0.26.

Turning to A18U A30G, the self-cleavage was determined as 1.39.

As for G20U A33U, the self-cleavage is 0.94.

Consider G21A A66G, for which the self-cleavage came out at 1.12.

As to A18U A129G, the self-cleavage was 1.24.

As for U19A U26A, the self-cleavage was found to be 1.58.

With G20U A82U, the self-cleavage stood at 0.2.

As for G20A A78G, the self-cleavage was determined as 0.3.

With U19A C25U, the self-cleavage amounted to 1.86.

As for U19A A116G, the self-cleavage amounted to 1.24.

As for A18U U49G, the self-cleavage is 1.01.

As to G20A U132C, the self-cleavage is 1.92.

For the variant A18U A117G, the self-cleavage turned out to be 1.72.

Consider U19G A51U, for which the self-cleavage worked out at 1.46.

On to U19G A51G, for which the self-cleavage came out at 0.33.

Take G20U U100C: the self-cleavage was found to be 2.46.

As to G21A U132A, the self-cleavage turned out to be 1.94.

Regarding A18U U131C, the self-cleavage turned out to be 0.74.

Turning to U19C G80C, the self-cleavage was 0.1.

As to A18U A78U, the self-cleavage stood at 0.45.

Turning to A22G A64U, the self-cleavage was determined as 0.62.

Consider A22G A64G, for which the self-cleavage worked out at 1.31.

For the variant U19C C45U, the self-cleavage came to 0.47.

For the variant U19C C105G, the self-cleavage came to 0.04.

As to U19C C105U, the self-cleavage turned out to be 0.15.

In the case of A22C U102C, the self-cleavage came to 2.42.

A18U G79A: the self-cleavage was 0.05.

For U19C A69U, the self-cleavage stood at 1.62.

With U19C A69C, the self-cleavage came out at 1.71.

Take U19C A69G: the self-cleavage is 1.05.

Consider U19C U37A, for which the self-cleavage turned out to be 0.9.

Take G21A U72C: the self-cleavage amounted to 0.3.

Turning to U19A U97G, the self-cleavage worked out at 1.84.

On to U19C A51U, for which the self-cleavage was 1.

For A22G A95G, the self-cleavage is 1.75.

Take U19G A86U: the self-cleavage was found to be 0.68.

In the case of A22G A68C, the self-cleavage turned out to be 0.64.

Consider U19C U57C, for which the self-cleavage amounted to 1.37.

In the case of U19C U57A, the self-cleavage is 1.21.

As to A22G A27U, the self-cleavage is 1.2.

Consider A18U A33C, for which the self-cleavage was determined as 1.61.

For A18U A33G, the self-cleavage was determined as 0.61.

For the variant U19G U100A, the self-cleavage amounted to 0.74.

For U19G U100C, the self-cleavage amounted to 2.09.

As for U19G C40A, the self-cleavage came to 1.04.

For G21A A55G, the self-cleavage was 1.29.

Turning to A22G A33C, the self-cleavage was 0.57.

In the case of A22G A63C, the self-cleavage stood at 1.25.

Turning to A22G A63G, the self-cleavage was found to be 1.72.

Regarding G20A U102C, the self-cleavage worked out at 2.1.

As for U19C A125G, the self-cleavage is 0.61.

A22G A52G: the self-cleavage was determined as 0.91.

In the case of A18U C101A, the self-cleavage is 0.05.

On to U19A A64G, for which the self-cleavage was 1.03.

G20U C77A: the self-cleavage stood at 0.73.

As to U19G A47U, the self-cleavage was 1.08.

With U19A A59U, the self-cleavage turned out to be 1.72.

For G20A U72A, the self-cleavage stood at 0.06.

For A18U A47G, the self-cleavage came out at 1.05.

Turning to G21A U130C, the self-cleavage was determined as 0.53.

As to U19C U130C, the self-cleavage amounted to 0.31.

As to A18U A54G, the self-cleavage turned out to be 1.28.

Take U19A U39C: the self-cleavage came out at 0.99.

In the case of A18U G74A, the self-cleavage was determined as 0.22.

A22G A23U: the self-cleavage came to 1.26.

U19C C34U: the self-cleavage came out at 0.91.

A22G A47G: the self-cleavage came to 1.34.

On to A22G A47U, for which the self-cleavage came out at 0.62.

Regarding U19C A89U, the self-cleavage is 1.15.

Regarding U19C A89G, the self-cleavage is 1.5.

For G21C A126G, the self-cleavage is 1.63.

As to A18G U131C, the self-cleavage was 1.63.

For the variant U19A U120C, the self-cleavage turned out to be 0.79.

As for A22G A114C, the self-cleavage came out at 0.03.

As for A22G A114G, the self-cleavage came to 0.69.

As for U19C G28A, the self-cleavage came to 1.41.

On to U19A A67G, for which the self-cleavage stood at 1.84.

For G21A A96C, the self-cleavage worked out at 0.6.

In the case of U19G A114U, the self-cleavage came out at 0.1.

Consider G20A U97A, for which the self-cleavage came to 2.67.

On to A18U A95G, for which the self-cleavage amounted to 1.96.

Turning to U19C C85U, the self-cleavage came out at 0.88.

As to A18U A24G, the self-cleavage was determined as 1.31.

On to U19C A78U, for which the self-cleavage is 0.28.

For the variant G20A A62G, the self-cleavage worked out at 1.45.

As to A18U G41A, the self-cleavage was 1.09.

Turning to G20A A68G, the self-cleavage worked out at 1.37.

Take G21A A33G: the self-cleavage amounted to 0.33.

With U19C A52G, the self-cleavage was found to be 1.35.

Regarding U19A U49A, the self-cleavage came to 1.05.

As for A18U A94G, the self-cleavage was determined as 1.06.

With U19C G136A, the self-cleavage came out at 1.38.

In the case of U19C U100C, the self-cleavage is 1.97.

With U19C U100A, the self-cleavage is 0.71.

On to A18U A27C, for which the self-cleavage was found to be 1.5.

For A22G A55U, the self-cleavage came to 1.26.

Consider A22G A55G, for which the self-cleavage came out at 1.16.

In the case of U19C U39C, the self-cleavage is 1.7.

As to U19C A114C, the self-cleavage was 0.06.

With U19A A82G, the self-cleavage was determined as 0.68.

In the case of U19A A92G, the self-cleavage was 1.47.

As to U19A A92U, the self-cleavage was 2.13.

As to G21U A118G, the self-cleavage came out at 1.98.

For the variant A18U A114G, the self-cleavage amounted to 0.35.

Take U19C A36U: the self-cleavage came out at 1.76.

In the case of U19C A36G, the self-cleavage turned out to be 2.03.

For the variant U19C U122A, the self-cleavage turned out to be 0.65.

Turning to U19C U122C, the self-cleavage was 0.46.

Consider A22G A92G, for which the self-cleavage was determined as 1.08.

Take A22G A92U: the self-cleavage was 1.94.

On to U19C A62U, for which the self-cleavage is 1.48.

Regarding A22G A91C, the self-cleavage amounted to 1.93.

On to A22G A91U, for which the self-cleavage stood at 1.06.

Take A22G A91G: the self-cleavage was found to be 0.49.

Take U19A U131A: the self-cleavage is 0.78.

On to A18U U130C, for which the self-cleavage is 1.37.

For A22G A66G, the self-cleavage is 1.25.

On to A22G A66C, for which the self-cleavage worked out at 1.49.

Take A22G A66U: the self-cleavage came out at 1.41.

On to A22G A36G, for which the self-cleavage turned out to be 1.4.

For G20A A126G, the self-cleavage came to 1.02.

With G21U U87A, the self-cleavage was found to be 1.31.

For G21C C61U, the self-cleavage was 0.94.

On to A18G U57G, for which the self-cleavage is 1.21.

With U19A U102A, the self-cleavage came out at 0.97.

A18U U132C: the self-cleavage worked out at 1.75.

In the case of U19G A111G, the self-cleavage was found to be 0.04.

Regarding A18G U72A, the self-cleavage is 0.37.

In the case of A18G U72C, the self-cleavage was determined as 0.38.

Regarding G20U U130C, the self-cleavage turned out to be 1.04.

For G21A, the self-cleavage stood at 0.62.

Turning to G21U, the self-cleavage is 1.51.

Take G21C: the self-cleavage was 0.85.

A22G A78G: the self-cleavage is 0.27.

Turning to A22G A78U, the self-cleavage was found to be 0.32.

Regarding U19C U127A, the self-cleavage is 2.17.

With U19C U127C, the self-cleavage worked out at 0.95.

Turning to A22C A30G, the self-cleavage is 1.

Consider A18U A118G, for which the self-cleavage came out at 0.6.

Consider U19A U43C, for which the self-cleavage is 1.77.

Regarding U19A U103C, the self-cleavage was 0.75.

Regarding G20A A90G, the self-cleavage is 0.76.

For the variant A22G A51U, the self-cleavage came out at 1.24.

Consider U19A A111C, for which the self-cleavage amounted to 0.01.

Take U19A A111G: the self-cleavage came out at 0.02.

In the case of G20U A111G, the self-cleavage was 0.04.

With A18G U102C, the self-cleavage amounted to 1.64.

Consider A18G U102A, for which the self-cleavage was 1.13.

For the variant U19C A111U, the self-cleavage came out at 0.07.

Consider U19A A24G, for which the self-cleavage stood at 0.29.

In the case of U19C C109U, the self-cleavage came out at 0.63.

G20U U97C: the self-cleavage amounted to 0.63.

With A22C A69U, the self-cleavage is 1.74.

For U19C C88A, the self-cleavage turned out to be 2.03.

For U19C G75U, the self-cleavage was found to be 0.08.

Turning to U19C C113A, the self-cleavage amounted to 0.

Regarding A22G A116G, the self-cleavage worked out at 0.57.

Turning to U19C U131C, the self-cleavage is 1.14.

In the case of G20A A54G, the self-cleavage is 1.28.

U19C A129C: the self-cleavage was determined as 1.72.

As to A18U A55C, the self-cleavage came out at 1.22.

With U19C C32U, the self-cleavage amounted to 1.32.

As to U19C C32G, the self-cleavage amounted to 1.51.

For the variant G21A A52G, the self-cleavage amounted to 1.57.

Regarding A22C U139C, the self-cleavage was 0.51.
